Reference: patent CN115043938A (DUAN LIANGWEI; JIANG ZHIHUA; WANG HUI, dated 2022)

B1: 抗体Amb2 (antibody, V domains shown)
VH: EVQLLESGPGLVKPSETLSLTCTVSGGSISNSSYYWGWIRQPPGKGLEWIGSIYYSGSTYYNPSLKSRVTISVDTSKNQFSLKLSSVTAADTGVYYCASWLYGDPISFDYWGQGTLVTVSS
VL: not shown
B2: 抗体Amb1 (antibody, V domains shown)
VH: EVQLLESGTEVKKPGSSVKVSCKASGGTFSSYAISWVRQAPGQGLEWMGGIIPILGIANYAQKFQGRVTITADKSTSTAYMELSSLRSEDTAVYYCARERGYSGYGAAYYFDYWGQGTLVTVSS
VL: QSVLTQAPSVSGAPGQSVTISCTGSSSNIGAGYDVHWYQQLPGTAPKLLIYGNNNRPSGVPDRFSGSKSGTSASLAITGLQAEDEADYYCQSYDSSLSKGVFGGGTKLTVL

Tests used:
[1] = molecular target: 新型冠状病毒野生型RBD蛋白 (RBD-WT, cat#Z03479, Gensript) (SARS-CoV-2 野生型, UniProt P0DTC2 319-541); assay: BIAcore SPR, RBD immobilised on CM5 chip, antibody as analyte, 25℃, 1:1 model
SARS-CoV-2野生型 S蛋白 (假病毒) = SARS-CoV-2野生型 S蛋白 (假病毒) (SARS-CoV-2 野生型, UniProt P0DTC2 14-1273); assay: cell-based or functional assay

| Binder | Kd [1] | 假病毒中和 IC50 (SARS-CoV-2野生型 S蛋白 (假病毒)) |
| --- | --- | --- |
| B1 | 164 nM | 0.064 µg/mL |
| B2 | 151 nM | 0.13 µg/mL |
